Reference: publication PMC4452267

Assays:
[1] = target: T1, PpsR (Rubrivivax gelatinosus) (UniProt I0HUJ5); test: DNase I footprinting; settings: EMSA: 5 nM probe, 25 mM Tris-HCl pH 8.0, 100 mM NaCl, 2 mM MgCl2, 6% glycerol, 50 ug/ml heparin, room temperature 30 min (5 mM DTT if reduced); footprint: …
T1 sequence: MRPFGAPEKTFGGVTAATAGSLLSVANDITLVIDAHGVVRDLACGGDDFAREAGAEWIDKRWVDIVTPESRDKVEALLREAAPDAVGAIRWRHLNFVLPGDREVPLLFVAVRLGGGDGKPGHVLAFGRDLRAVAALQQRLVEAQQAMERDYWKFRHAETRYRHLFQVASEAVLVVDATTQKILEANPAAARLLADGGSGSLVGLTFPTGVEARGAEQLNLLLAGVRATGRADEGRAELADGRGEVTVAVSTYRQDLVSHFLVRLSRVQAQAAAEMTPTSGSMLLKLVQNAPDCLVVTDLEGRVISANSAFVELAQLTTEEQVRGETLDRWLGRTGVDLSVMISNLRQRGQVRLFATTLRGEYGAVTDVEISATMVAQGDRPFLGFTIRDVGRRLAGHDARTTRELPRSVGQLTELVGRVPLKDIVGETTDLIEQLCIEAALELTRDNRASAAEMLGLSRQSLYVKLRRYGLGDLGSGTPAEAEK

[2] = target: Rubrivivax gelatinosus PpsR (Rubrivivax gelatinosus); test: SEC; Superose 12 in 20 mM Tris-HCl (pH 8.0), 500 mM NaCl, 6% glycerol, 0.5 ml/min; molecular weight estimated from a standard curve (Gel Filtration Standard, BioRad)
[3] = system: PpsR (Rubrivivax gelatinosus); test: EMSA; settings: EC50, EMSA: 5 nM probe, 25 mM Tris-HCl pH 8.0, 100 mM NaCl, 2 mM MgCl2, 6% glycerol, 50 ug/ml heparin, room temperature 30 min (5 mM DTT if reduced), footprint: …
[4] = system: PpsR C436A (Rubrivivax gelatinosus); test: EMSA; settings: EC50, EMSA: 5 nM probe, 25 mM Tris-HCl pH 8.0, 100 mM NaCl, 2 mM MgCl2, 6% glycerol, 50 ug/ml heparin, room temperature 30 min (5 mM DTT if reduced), footprint: …

Substance | binding [1] | stoichiometry N [2] | K half ([3]; oxidized (untreated)) | K half ([3]; reduced, 5 mM DTT) | K half ([4]; oxidized (untreated)) | K half ([4]; reduced, 5 mM DTT)
ACCAGTTTCCGTGCTCGACCCGCACGTGGGTTGGCTTCTGTAGCCCTCGGATTTCTCCCTACCGACATGTGTAACGCTACGCTGACAGGGTGGGGGCGTCAACATGTCGTGACACCCCCGCAACGCTGAATGTGTCGCGGCTCTGATCTATGACAAATTGCCGGGGTCCGGCGGGCCTCGGGAGCTCT (double strand) [pucB promoter footprint probe] | binds |  |  |  |  | 
ATCCTGCTTTCCGGCCGCGCGCGGGGCTGCGGCATCCGACTTCATCAGCATCCGTCGAGCTTGTCCTAAGGCAGGGATTGTGTCAACGACAATTGACGCTCTGTTTTGTCAAGCGCAAGATTCAGCCCCATGGCAAGGCCCGCGTTGTCCGCTGTAGCGGAGTTGCTCAAACCGATCACCTGGTTCCCTCCGAT (double strand) [crtI promoter footprint probe] | binds |  |  |  |  | 
Rubrivivax gelatinosus PpsR (natural protein) |  | 4 |  |  |  | 
crtI promoter EMSA probe |  |  | 80.5 nM | 86.5 nM | 146 nM | 147 nM
pucB promoter EMSA probe |  |  | 49.8 nM | 63.3 nM | 94.1 nM | 93.3 nM
